Results: patent publication US20140087995A1 (published 2014)
Numbered stars: 1 amine (or outer) side, 2 acyl side, 3 side chain; on linkers, the order of the positions; unused ones are H or OH. Bridge positions count the residues as written; N and C are the ends. * marks the point of attachment. C20 diacid = O=C(O)CCCCCCCCCCCCCCCCCCC(=O)*; γGlu = O=C(O)[C@H](CCC(=O)[*:2])N[*:1]

T1: rat calcitonin receptor (rat, UniProt P32214 25-516)
T1 construct: whole, on cells; Membranes of BHK tk'ts 13 cells transiently transfected with the rat calcitonin receptor; also called rCTR; rat calcitonin (a) receptor
T1 sequence (looked up): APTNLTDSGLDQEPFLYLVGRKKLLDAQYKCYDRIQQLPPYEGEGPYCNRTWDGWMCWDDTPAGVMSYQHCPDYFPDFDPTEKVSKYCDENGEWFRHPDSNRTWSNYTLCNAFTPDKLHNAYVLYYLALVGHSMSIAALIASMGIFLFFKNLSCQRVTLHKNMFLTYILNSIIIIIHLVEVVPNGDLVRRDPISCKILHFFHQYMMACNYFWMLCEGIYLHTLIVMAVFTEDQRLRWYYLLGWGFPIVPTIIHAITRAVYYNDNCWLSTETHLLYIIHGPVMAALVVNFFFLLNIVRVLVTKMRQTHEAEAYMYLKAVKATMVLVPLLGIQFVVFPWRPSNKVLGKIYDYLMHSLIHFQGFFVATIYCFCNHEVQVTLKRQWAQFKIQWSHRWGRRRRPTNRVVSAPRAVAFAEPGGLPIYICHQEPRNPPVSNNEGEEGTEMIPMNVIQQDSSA

T2: human calcitonin receptor (human, UniProt P30988 25-474)
T2 construct: whole, on cells; Membranes of a BHK tk'ts 13 cell line stably transfected with the human calcitonin receptor; also called hCTR; hCT
T2 sequence (looked up): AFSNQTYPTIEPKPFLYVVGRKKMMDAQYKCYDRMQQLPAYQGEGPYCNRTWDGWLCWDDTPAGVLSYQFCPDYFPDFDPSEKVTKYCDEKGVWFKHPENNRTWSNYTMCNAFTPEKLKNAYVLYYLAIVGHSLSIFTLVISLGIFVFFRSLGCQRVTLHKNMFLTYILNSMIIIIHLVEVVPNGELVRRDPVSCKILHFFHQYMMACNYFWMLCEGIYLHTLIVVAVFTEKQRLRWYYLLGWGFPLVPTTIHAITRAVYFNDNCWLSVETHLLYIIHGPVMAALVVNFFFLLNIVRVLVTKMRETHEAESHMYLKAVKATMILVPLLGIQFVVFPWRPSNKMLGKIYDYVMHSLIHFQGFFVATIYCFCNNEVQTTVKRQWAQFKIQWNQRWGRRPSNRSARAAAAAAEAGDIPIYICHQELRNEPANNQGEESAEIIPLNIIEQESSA

T3: rat amylin receptor (rat calcitonin receptor + rat RAMP 3) (rat, UniProt P32214 25-516; Q9JJ73 23-147)
T3 construct: whole, on cells; Membranes of BHK tk'ts 13 cells transiently transfected with the rat calcitonin receptor and rat RAMP 3; also called rAmylin-R; rat amylin 3(a) receptor
T3 sequence (looked up) 1: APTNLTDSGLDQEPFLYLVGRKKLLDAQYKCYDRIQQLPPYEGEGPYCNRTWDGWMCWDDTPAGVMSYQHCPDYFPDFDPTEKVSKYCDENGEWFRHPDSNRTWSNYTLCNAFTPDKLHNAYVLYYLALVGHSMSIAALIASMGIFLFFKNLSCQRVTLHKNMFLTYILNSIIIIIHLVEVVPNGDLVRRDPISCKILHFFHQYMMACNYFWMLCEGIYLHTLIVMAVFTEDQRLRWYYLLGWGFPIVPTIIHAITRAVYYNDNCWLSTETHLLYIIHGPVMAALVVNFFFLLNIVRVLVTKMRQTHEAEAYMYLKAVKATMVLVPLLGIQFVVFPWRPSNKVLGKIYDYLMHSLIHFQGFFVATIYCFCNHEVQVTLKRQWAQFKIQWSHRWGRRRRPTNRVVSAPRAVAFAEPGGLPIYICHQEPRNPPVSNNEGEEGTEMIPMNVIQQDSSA
T3 sequence (looked up) 2: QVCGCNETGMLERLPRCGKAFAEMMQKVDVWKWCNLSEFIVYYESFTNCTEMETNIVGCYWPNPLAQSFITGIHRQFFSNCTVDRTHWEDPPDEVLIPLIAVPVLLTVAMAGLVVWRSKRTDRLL


Key:
rat calcitonin receptor [1] = target: T1, rat calcitonin receptor; assay: IC50 at rCTR divided by IC50 at rAmylin-R (reference)
[2] = target: T2, human calcitonin receptor; assay: IC50 at hCTR divided by IC50 at hAmylin-R (reference)
Description: The resulting pellet was resuspended, homogenized and centrifuged (20.000 rpm, 15 min) in a buffer containing 20 mM Na-HEPES and 0.1 mM EDTA (pH 7.4, buffer 2). The resulting pellet was resuspended in buffer 2 and protein concentration was measured (BCA protein Assay, Pierce). The homogenate was kept cold during the whole procedure. The membranes were kept at −80° C. until use. The assay was performed in a 384 well Optiplate (PerkinElmer) in a total volume of 40 ul. Membranes were mixed with SPA beads. Final concentration of membranes 35 ng/μL final and SPA beads was 0.05 mg/well. Test-compounds were dissolved in DMSO and further diluted in assay buffer (50 mM Hepes, pH 7.4, 1 mM CaCl2, 5 mM MgCl₂, 0.1% OA and 0.02% Tween20). […] The final mixture was incubated with shaking at 400 rpm for 120 min at 25° C. prior to centrifugation (1500 rpm, 10 min). Samples were analyzed on TopCounter™ (Packard). The IC₅₀ was calculated using (one site binding competition analysis) GraphPad Prism5 as a measure of receptor affinity.
Membranes were prepared in the following way; the cells were rinsed with PBS and incubated with Versene for approximately 5 min before harvesting. The cells were flushed with PBS and the cell-suspension was centrifuged for 5 min at 1000 rpm. Cells were homogenized (Ultrathurrax) in a buffer containing 20 mM Na-HEPES and 10 mM EDTA (pH 7.4) and centrifuged at 20.000 rpm for 15 min. The resulting pellet was resuspended, homogenized and centrifuged (20.000 rpm, 15 min) in a buffer containing 20 mM Na-HEPES and 0.1 mM EDTA (pH 7.4, buffer 2). The resulting pellet was resuspended in buffer 2 and protein concentration was measured (BCA protein Assay, Pierce). The homogenate was kept cold during the whole procedure. The membranes were kept at −80° C. until use. Assay was performed in a 384 well Optiplate (PerkinElmer) in a total volume of 40 ul. Membranes were mixed with SPA beads.

[3] = target: T3, rat amylin receptor (rat calcitonin …); assay: SPA competition vs 125I-rat amylin, membranes with rat CTR + rat RAMP3 (Assay VI)
Description: The binding assay was performed using scintillation proximity assay (SPA) beads (RPNQ0001) from PerkinElmer and cell membranes from the Amylin 3(a)/CRE-luc cells (as described in Assay (II)) were used. Membranes were prepared in the following way; the cells were rinsed with PBS and incubated with Versene for approximately 5 min before harvesting. The cells were flushed with PBS and the cell-suspension was centrifuged for 5 min at 1000 rpm. Cells were homogenized (ultrathurrax) in a buffer containing 20 mM Na-HEPES and 10 mM EDTA (pH 7.4) and centrifuged at 20.000 rpm for 15 min. The resulting pellet was resuspended, homogenized and centrifuged (20.000 rpm, 15 min) in a buffer containing 20 mM Na-HEPES and 0.1 mM EDTA (pH 7.4, buffer 2). The resulting pellet was resuspended in buffer 2 and protein concentration was measured (BCA protein Assay, Pierce). The homogenate was kept cold during the whole procedure. The membranes were kept at −80° C. until use. The assay was performed in a 384 well Optiplate (PerkinElmer) in a total volume of 40 ul. Membranes were mixed with SPA beads. Final concentration of membranes 35 ng/μL final and SPA beads was 0.05 mg/well. Test-compounds were dissolved in DMSO and further diluted in assay buffer (50 mM Hepes, pH 7.4, 1 mM CaCl2, 5 mM MgCl₂, 0.1% OA and 0.02% Tween20). […] The final mixture was incubated with shaking at 400 rpm for 120 min at 25° C. prior to centrifugation (1500 rpm, 10 min). Samples were analyzed on TopCounter™ (Packard). The IC₅₀ was calculated using (one site binding competition analysis) GraphPad Prism5 as a measure of receptor affinity.
Cells were grown in DMEM with 10% FBS and 1% Pen/Strep. Approximately 48 hours after transfection, the cells were harvested and membranes were prepared.

rat calcitonin receptor [4] = target: T1, rat calcitonin receptor; assay: SPA competition vs 125I-calcitonin, membranes with rat CTR (Assay VIII)

Row | Ratio rCT/rAmylin binding (rat calcitonin receptor [1]) | Ratio hCT/hAmylin binding [2] | IC50 [3] [nM] | IC50 (rat calcitonin receptor [4]) [nM] | Binder
1 | 21.7 | 20 | 2.37 | 51.5 | {C20 diacid-γGlu}-KCNTATCATQRLAEFLRHSSPNFGPILPPTNVGSNTY-NH2 (disulfide 2-7; SMILES CC[C@H](C)[C@H](NC(=O)[C@@H]1CCCN1C(=O)CNC(=O)[C@H](Cc1ccccc1)NC(=O)[C@H](CC(N)=O)NC(=O)[C@@H]1CCCN1C(=O)[C@H](CO)NC(=O)[C@H](CO)NC(=O)[C@H](Cc1c[nH]cn1)NC(=O)[C@H](CCCNC(=N)N)NC(=O)[C@H](CC(C)C)NC(=O)[C@H](Cc1ccccc1)NC(=O)[C@H](CCC(=O)O)NC(=O)[C@H](C)NC(=O)[C@H](CC(C)C)NC(=O)[C@H](CCCNC(=N)N)NC(=O)[C@H](CCC(N)=O)NC(=O)[C@@H](NC(=O)[C@H](C)NC(=O)[C@@H]1CSSC[C@H](NC(=O)[C@H](CCCCN)NC(=O)CC[C@H](NC(=O)CCCCCCCCCCCCCCCCCCC(=O)O)C(=O)O)C(=O)N[C@@H](CC(N)=O)C(=O)N[C@@H]([C@@H](C)O)C(=O)N[C@@H](C)C(=O)N[C@@H]([C@@H](C)O)C(=O)N1)[C@@H](C)O)C(=O)N[C@@H](CC(C)C)C(=O)N1CCC[C@H]1C(=O)N1CCC[C@H]1C(=O)N[C@H](C(=O)N[C@@H](CC(N)=O)C(=O)N[C@H](C(=O)NCC(=O)N[C@@H](CO)C(=O)N[C@@H](CC(N)=O)C(=O)N[C@H](C(=O)N[C@@H](Cc1ccc(O)cc1)C(N)=O)[C@@H](C)O)C(C)C)[C@@H](C)O, modifications are with respect to human amylin; also called compound 6)
2 | 45.6 | 19.1 | 1.21 | 55.2 | {C20 diacid-γGlu}-KCNTATCATQRLAEFLRHSSPNFGAIPSSTNVGSRTY-NH2 (disulfide 2-7; SMILES CC[C@H](C)[C@H](NC(=O)[C@H](C)NC(=O)CNC(=O)[C@H](Cc1ccccc1)NC(=O)[C@H](CC(N)=O)NC(=O)[C@@H]1CCCN1C(=O)[C@H](CO)NC(=O)[C@H](CO)NC(=O)[C@H](Cc1c[nH]cn1)NC(=O)[C@H](CCCNC(=N)N)NC(=O)[C@H](CC(C)C)NC(=O)[C@H](Cc1ccccc1)NC(=O)[C@H](CCC(=O)O)NC(=O)[C@H](C)NC(=O)[C@H](CC(C)C)NC(=O)[C@H](CCCNC(=N)N)NC(=O)[C@H](CCC(N)=O)NC(=O)[C@@H](NC(=O)[C@H](C)NC(=O)[C@@H]1CSSC[C@H](NC(=O)[C@H](CCCCN)NC(=O)CC[C@H](NC(=O)CCCCCCCCCCCCCCCCCCC(=O)O)C(=O)O)C(=O)N[C@@H](CC(N)=O)C(=O)N[C@@H]([C@@H](C)O)C(=O)N[C@@H](C)C(=O)N[C@@H]([C@@H](C)O)C(=O)N1)[C@@H](C)O)C(=O)N1CCC[C@H]1C(=O)N[C@@H](CO)C(=O)N[C@@H](CO)C(=O)N[C@H](C(=O)N[C@@H](CC(N)=O)C(=O)N[C@H](C(=O)NCC(=O)N[C@@H](CO)C(=O)N[C@@H](CCCNC(=N)N)C(=O)N[C@H](C(=O)N[C@@H](Cc1ccc(O)cc1)C(N)=O)[C@@H](C)O)C(C)C)[C@@H](C)O, modifications are with respect to human amylin; also called compound 16)
3 | 42 | 16.5 | 1.12 | 47.2 | {C20 diacid-γGlu}-KCNTATCATQRLAEFLRHSSPNFGAPLSSTNVGSNTY-NH2 (disulfide 2-7; SMILES CC(C)C[C@H](NC(=O)[C@H](CCCNC(=N)N)NC(=O)[C@H](CCC(N)=O)NC(=O)[C@@H](NC(=O)[C@H](C)NC(=O)[C@@H]1CSSC[C@H](NC(=O)[C@H](CCCCN)NC(=O)CC[C@H](NC(=O)CCCCCCCCCCCCCCCCCCC(=O)O)C(=O)O)C(=O)N[C@@H](CC(N)=O)C(=O)N[C@@H]([C@@H](C)O)C(=O)N[C@@H](C)C(=O)N[C@@H]([C@@H](C)O)C(=O)N1)[C@@H](C)O)C(=O)N[C@@H](C)C(=O)N[C@@H](CCC(=O)O)C(=O)N[C@@H](Cc1ccccc1)C(=O)N[C@@H](CC(C)C)C(=O)N[C@@H](CCCNC(=N)N)C(=O)N[C@@H](Cc1c[nH]cn1)C(=O)N[C@@H](CO)C(=O)N[C@@H](CO)C(=O)N1CCC[C@H]1C(=O)N[C@@H](CC(N)=O)C(=O)N[C@@H](Cc1ccccc1)C(=O)NCC(=O)N[C@@H](C)C(=O)N1CCC[C@H]1C(=O)N[C@@H](CC(C)C)C(=O)N[C@@H](CO)C(=O)N[C@@H](CO)C(=O)N[C@H](C(=O)N[C@@H](CC(N)=O)C(=O)N[C@H](C(=O)NCC(=O)N[C@@H](CO)C(=O)N[C@@H](CC(N)=O)C(=O)N[C@H](C(=O)N[C@@H](Cc1ccc(O)cc1)C(N)=O)[C@@H](C)O)C(C)C)[C@@H](C)O, modifications are with respect to human amylin; also called compound 7) [N^α1-[(4S)-4-carboxy-4-(19-carboxynonadecanoylamino)butanoyl]-[Glu14,Arg17,Pro21,Pro26]-h-amylin]
